Assay results taken from patent US20020151463A1.

Tests used:
[1] = target: HEK-293 clones transfected with hMC1R, hMC3R or hMC5R; assay: radioligand binding with 125I-NDP-α-MSH on transfected HEK-293 clones
[2] = target: murine MSH receptor (mouse) (UniProt Q01727); assay: competition binding of cold ACTH against 125I-ACTH1-39 on Cloudman M-3 melanoma cells
rat MC3-R (rat) = rat MC3-R (rat) (UniProt P32244); assay: cell-based or functional assay
rat MC3-R (rat), sequence (P32244 whole entry): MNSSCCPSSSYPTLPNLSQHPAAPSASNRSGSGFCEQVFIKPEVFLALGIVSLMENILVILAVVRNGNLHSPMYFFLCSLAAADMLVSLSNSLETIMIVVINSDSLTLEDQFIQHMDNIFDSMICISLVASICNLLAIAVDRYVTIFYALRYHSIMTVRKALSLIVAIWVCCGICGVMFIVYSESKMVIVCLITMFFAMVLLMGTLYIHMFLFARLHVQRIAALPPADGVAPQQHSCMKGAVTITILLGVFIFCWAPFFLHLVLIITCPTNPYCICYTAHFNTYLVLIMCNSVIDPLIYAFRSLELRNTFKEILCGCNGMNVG

adrenocorticotropic hormone (unlabelled) (peptide), sequence (P01189 138-176): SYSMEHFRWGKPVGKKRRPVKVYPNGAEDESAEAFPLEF
murine MSH receptor (mouse), sequence (Q01727 whole entry): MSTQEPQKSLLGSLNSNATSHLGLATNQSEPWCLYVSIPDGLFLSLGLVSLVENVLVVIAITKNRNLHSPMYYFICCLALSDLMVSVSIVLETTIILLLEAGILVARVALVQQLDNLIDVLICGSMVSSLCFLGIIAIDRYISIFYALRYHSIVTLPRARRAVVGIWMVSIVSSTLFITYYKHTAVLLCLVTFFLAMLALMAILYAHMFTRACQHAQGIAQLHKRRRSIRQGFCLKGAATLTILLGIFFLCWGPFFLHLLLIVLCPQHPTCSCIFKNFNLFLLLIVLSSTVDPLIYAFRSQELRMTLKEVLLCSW

## 125I-labeled Nle,D-Phe (NDP)-α-MSH (from UniProt P01189 138-150) (peptide)
[1]
  Ki: 0.11 to 0.58 nM

## adrenocorticotropic hormone (unlabelled) (peptide)
[2]
  Kd: 63 nM

## α-melanocyte-stimulating hormone (from UniProt P01189 138-150) (peptide)
Rat MC3-R (rat)
  EC50 for adenylyl cyclase activation, rat MC3-R in 293 cells, α-MSH alone: 4.2 nM
  EC50 for adenylyl cyclase activation, rat MC3-R in 293 cells, α-MSH plus 0.7 nM murine agouti: 4.1 nM
